Values of other authors as cited in article PMC3166722.
Where two headings read alike, the source gives them in different places.

Experiments:
CaM (Homo sapiens) [1] = target: CaM (Homo sapiens) (UniProt P0DP23)
[2] = target: GPC (trypsinized IOVs) (Homo sapiens) (UniProt P04921); assay: IOV binding, Scatchard analysis
CaM (Homo sapiens) [3] = target: CaM (Homo sapiens) (UniProt P0DP23); assay: resonant mirror detection (IAsys)

GPC (trypsinized IOVs) (Homo sapiens), sequence (P04921 whole entry): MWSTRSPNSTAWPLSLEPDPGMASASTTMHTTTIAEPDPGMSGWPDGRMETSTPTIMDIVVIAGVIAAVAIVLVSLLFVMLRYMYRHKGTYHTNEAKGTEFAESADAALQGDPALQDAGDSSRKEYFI
4.1R80, sequence (P11171 whole entry): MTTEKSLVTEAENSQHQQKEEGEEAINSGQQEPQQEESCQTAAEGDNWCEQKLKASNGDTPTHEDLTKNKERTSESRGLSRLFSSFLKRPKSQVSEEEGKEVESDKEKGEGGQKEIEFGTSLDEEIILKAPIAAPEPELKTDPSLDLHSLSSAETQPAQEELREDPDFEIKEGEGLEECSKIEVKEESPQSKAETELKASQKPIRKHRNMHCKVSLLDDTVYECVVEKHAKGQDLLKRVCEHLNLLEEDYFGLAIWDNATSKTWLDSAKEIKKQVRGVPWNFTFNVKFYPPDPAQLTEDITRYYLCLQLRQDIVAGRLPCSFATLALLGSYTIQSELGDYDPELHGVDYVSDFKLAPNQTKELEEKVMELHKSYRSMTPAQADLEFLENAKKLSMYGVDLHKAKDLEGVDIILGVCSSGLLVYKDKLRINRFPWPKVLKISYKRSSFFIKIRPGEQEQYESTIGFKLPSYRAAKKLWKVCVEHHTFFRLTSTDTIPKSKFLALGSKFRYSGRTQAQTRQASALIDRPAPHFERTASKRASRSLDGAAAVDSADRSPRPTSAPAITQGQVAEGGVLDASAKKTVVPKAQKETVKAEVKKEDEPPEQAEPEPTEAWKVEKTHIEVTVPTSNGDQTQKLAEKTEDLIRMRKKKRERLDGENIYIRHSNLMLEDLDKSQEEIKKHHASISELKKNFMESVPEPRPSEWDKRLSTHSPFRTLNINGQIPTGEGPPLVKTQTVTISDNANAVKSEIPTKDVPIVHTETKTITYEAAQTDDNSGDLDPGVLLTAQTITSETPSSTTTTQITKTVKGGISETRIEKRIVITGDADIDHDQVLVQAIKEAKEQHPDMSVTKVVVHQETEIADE
4.1R135, sequence (P11171 whole entry): as above

Substance	Kd (CaM (Homo sapiens) [1]) [nM]	Kd [2] [nM]	Kd (CaM (Homo sapiens) [3]) [nM]
4.1G (from UniProt O43491)	10		
4.1R80 (from UniProt P11171)		76	
4.1R135 (from UniProt P11171)		2000	51
